To fix the notation:
B1: glmS ribozyme (parent)
chain: AUAAAAGCGCCAGAACUACAGAAAUGUAGUUGACGAGGAGGAGGUUUAUCGAAUUUUCGGCGGAUGCCUCCAAA

± gives the standard error. For some of these results: Variants at the floor of the assay were thinned out.

What all share (conditions): with glucosamine-6-phosphate
Data set [1] covers variants of B1. Description: kcat; higher = faster cleavage; RNA array. A digest of the protocol:
(§1)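 Ribozyme variants carrying barcodes were transcribed in situ on sequenced MiSeq chips by E. coli RNA polymerase and tracked at 37 °C with a hybridised Cy3 probe. They were exposed to 40 μM to 10 mM glucosamine-6-phosphate in HEPES/KCl/Mg(OAc)2 buffer. kobs came from exponential decay fits of normalised per-tile medians, and kcat and KM from weighted Michaelis–Menten fits.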

Variants of B1 are the subject of data set [2]. The experiment in a line: KM; higher = weaker cofactor use; RNA array. A digest of the protocol:
as §1

The variants in data set [3] derive from B1. The experiment in a line: self-cleavage kobs at 160 uM GlcN6P; higher = faster cleavage; RNA array. The method in brief:
as §1

The variants in data set [4] derive from B1. Description: self-cleavage kobs at 640 uM GlcN6P; higher = faster cleavage; RNA array. The method in brief:
as §1

Data set [5] covers variants of B1. The experiment in a line: self-cleavage kobs at 2500 uM GlcN6P; higher = faster cleavage; RNA array. A digest of the protocol: as §1
Data set [6] covers variants of B1. The experiment in a line: self-cleavage kobs at 10000 uM GlcN6P; higher = faster cleavage; RNA array. The method in brief: as §1
Variants of B1 are the subject of data set [7]. The experiment in a line: self-cleavage kobs at 40 uM GlcN6P; higher = faster cleavage; RNA array. The method in brief: as §1

What is called kcat is the number of substrate molecules converted per active site and unit of time at saturation. Consider AUAAAAGCGCCAGAACUACAGAAAUGUAGUUGACGAGGAGGAGGUUUAUCGAAUUUCCGGCGGAUGCCUACAAA [U57C C70A], for which, in the data set with glucosamine-6-phosphate [1], the kcat was 1.97e-05 ± 8.4e-06 s⁻¹.

Broadly, the KM is the concentration of substrate that gives half-maximal velocity. As to AUAAAAGCGCCAGAAAUACAGAAAUGUAGUAGACGAGGAGGAGGUUUAUCGAAUUUUCGGCGGAUGCCUCCAAA [C16A U31A], the kcat with glucosamine-6-phosphate [1] turned out to be 0.0016 ± 0.00038 s⁻¹. In addition, the KM with glucosamine-6-phosphate [2] worked out at 3990 ± 1400 µM. In the data set with glucosamine-6-phosphate [3], the “self-cleavage kobs at 160 uM GlcN6P” value was found to be 8.65e-05 ± 2.4e-05 s⁻¹. Besides, the “self-cleavage kobs at 640 uM GlcN6P” value with glucosamine-6-phosphate [4] came out at 0.000194 ± 5.1e-05 s⁻¹. For the same variant, in the data set with glucosamine-6-phosphate [5], the “self-cleavage kobs at 2500 uM GlcN6P” value was determined as 0.000585 ± 0.00016 s⁻¹. For the same variant, in the data set with glucosamine-6-phosphate [6], the “self-cleavage kobs at 10000 uM GlcN6P” value amounted to 0.00119 ± 0.00027 s⁻¹.

Turning to AUAAAAGCGCCAGAACUACAGAAAUGUAGUUCACGAGGAGGAGGUUUAUCGAAGUUUCGGCGGAUGCCUCCAAA [G32C U54G], the kcat with glucosamine-6-phosphate [1] stood at 9.47e-05 ± 8e-06 s⁻¹. Moreover, the KM in the data set with glucosamine-6-phosphate [2] was 2550 ± 810 µM. In addition, in the data set with glucosamine-6-phosphate [5], the “self-cleavage kobs at 2500 uM GlcN6P” value was determined as 5.12e-05 ± 1.5e-05 s⁻¹. In addition, the “self-cleavage kobs at 10000 uM GlcN6P” value with glucosamine-6-phosphate [6] amounted to 7.5e-05 ± 8.5e-06 s⁻¹.

As to AUAAAAGCGCCAGAACUACAGAAAUGUAGUUGACGAGGAGGAGGUUUAUGGAAUUUUCGGCGGAUGUCUCCAAA [C50G C67U], the kcat with glucosamine-6-phosphate [1] came to 0.000113 ± 9.9e-06 s⁻¹. Besides, the “self-cleavage kobs at 40 uM GlcN6P” value with glucosamine-6-phosphate [7] was 9.57e-05 ± 8e-06 s⁻¹. Besides, the “self-cleavage kobs at 160 uM GlcN6P” value in the data set with glucosamine-6-phosphate [3] came to 0.000129 ± 1.6e-05 s⁻¹. For the same variant, in the data set with glucosamine-6-phosphate [4], the “self-cleavage kobs at 640 uM GlcN6P” value turned out to be 0.000141 ± 1.7e-05 s⁻¹. In addition, the “self-cleavage kobs at 2500 uM GlcN6P” value in the data set with glucosamine-6-phosphate [5] was 0.000126 ± 1.5e-05 s⁻¹. For the same variant, the “self-cleavage kobs at 10000 uM GlcN6P” value in the data set with glucosamine-6-phosphate [6] turned out to be 0.000101 ± 7.4e-06 s⁻¹.

Consider AUAAAAGCGCCAGUACUACAGAAAUGUAGUUGACGAGGAGGAGGUUCAUCGAAUUUUCGGCGGAUGCCUCCAAA [A14U U47C], for which the kcat with glucosamine-6-phosphate [1] was found to be 0.000442 ± 6.2e-05 s⁻¹. The KM in the data set with glucosamine-6-phosphate [2] turned out to be 1430 ± 360 µM. Also, in the data set with glucosamine-6-phosphate [3], the “self-cleavage kobs at 160 uM GlcN6P” value turned out to be 4.9e-05 ± 8.6e-06 s⁻¹. Besides, the “self-cleavage kobs at 640 uM GlcN6P” value with glucosamine-6-phosphate [4] stood at 0.000138 ± 1.3e-05 s⁻¹. For the same variant, in the data set with glucosamine-6-phosphate [5], the “self-cleavage kobs at 2500 uM GlcN6P” value is 0.000238 ± 3.2e-05 s⁻¹. In the data set with glucosamine-6-phosphate [6], the “self-cleavage kobs at 10000 uM GlcN6P” value stood at 0.000442 ± 5.2e-05 s⁻¹.

Consider AUAAAAGCGCCCGAACUACAGAAAUGUAGUUGACGAGGAGGAGGUUUAUCGAGUUUUCGGCGGAUGCCUCCAAA [A12C A53G], for which the kcat in the data set with glucosamine-6-phosphate [1] came to 0.0568 ± 0.027 s⁻¹. The “self-cleavage kobs at 40 uM GlcN6P” value with glucosamine-6-phosphate [7] is 0.000585 ± 7.2e-05 s⁻¹. Also, the “self-cleavage kobs at 160 uM GlcN6P” value with glucosamine-6-phosphate [3] was determined as 0.00162 ± 0.00033 s⁻¹. In the data set with glucosamine-6-phosphate [4], the “self-cleavage kobs at 640 uM GlcN6P” value is 0.00569 ± 0.00072 s⁻¹. Also, the “self-cleavage kobs at 2500 uM GlcN6P” value in the data set with glucosamine-6-phosphate [5] was 0.0149 ± 0.0025 s⁻¹. The “self-cleavage kobs at 10000 uM GlcN6P” value with glucosamine-6-phosphate [6] came out at 0.0471 ± 0.0076 s⁻¹.

Turning to AUAAAAGCGCCAGCACUACAGAAAUGUAGUUGACGAGGAGGAGGUUUAUCGAAUUAUCGGCGGAUGCCUCCAAA [A14C U56A], the kcat with glucosamine-6-phosphate [1] is 0.00449 ± 0.0013 s⁻¹. In the data set with glucosamine-6-phosphate [2], the KM worked out at 3990 ± 1600 µM. The “self-cleavage kobs at 40 uM GlcN6P” value with glucosamine-6-phosphate [7] is 7.03e-05 ± 9e-06 s⁻¹. Further, the “self-cleavage kobs at 160 uM GlcN6P” value with glucosamine-6-phosphate [3] stood at 0.000133 ± 2.8e-05 s⁻¹. Further, the “self-cleavage kobs at 640 uM GlcN6P” value with glucosamine-6-phosphate [4] amounted to 0.000559 ± 6.3e-05 s⁻¹. Also, the “self-cleavage kobs at 2500 uM GlcN6P” value in the data set with glucosamine-6-phosphate [5] turned out to be 0.00196 ± 0.00028 s⁻¹. Moreover, the “self-cleavage kobs at 10000 uM GlcN6P” value in the data set with glucosamine-6-phosphate [6] is 0.00318 ± 0.00032 s⁻¹.

Regarding AUAAAAGCGCCAGGACUACAGAAAUGUAGUUGACGAGGAGGAGGUUUAACGAAUUUUCGGCGGAUGCCUCCAAA [A14G U49A], in the data set with glucosamine-6-phosphate [1], the kcat stood at 3.99e-05 ± 1e-06 s⁻¹. Also, the KM in the data set with glucosamine-6-phosphate [2] amounted to 773 ± 130 µM. Further, the “self-cleavage kobs at 10000 uM GlcN6P” value in the data set with glucosamine-6-phosphate [6] came to 3.67e-05 ± 1.2e-05 s⁻¹.

On to AUAAAAGCGCCAGAACUACAGAAAUGUAGUUGACGUGGAGGAGGUUUAUCGAAUUUUCGGCGGAUGCCCCCAAA [A36U U69C], for which the kcat with glucosamine-6-phosphate [1] was 2.28e-05 ± 3.7e-06 s⁻¹.

These data come from the supplement of paper PMC7125110.
